Results on eight molecules are retold here after patent US10131702B2, “Glucagon-GLP-1-GIP triple agonist compounds” (priority 2013, dated 2018).

Where two headings read alike, the source gives them in different places. Numbered stars: 1 amine (or outer) side, 2 acyl side, 3 side chain; on linkers, the order of the positions; unused ones are H or OH. Square brackets hold non-standard residues; d marks the D form. Side chains are listed from the residue outwards. Peptide text beside a SMILES is read from it. * marks the point of attachment. C18 diacid = O=C(O)CCCCCCCCCCCCCCCCC(=O)*; γGlu = O=C(O)[C@H](CCC(=O)[*:2])N[*:1]; Stearoyl = CCCCCCCCCCCCCCCCCC(=O)*; Palmitoyl = CCCCCCCCCCCCCCCC(=O)*; AEEA = NCCOCCOCC(=O)O; Aib = CC(C)(N)C(=O)O

For test [1], the target named is T1, human GLP-1 R (Homo sapiens, UniProt P43220).
T1 construct: expressed in transfected cells
T1 sequence (P43220 24-463): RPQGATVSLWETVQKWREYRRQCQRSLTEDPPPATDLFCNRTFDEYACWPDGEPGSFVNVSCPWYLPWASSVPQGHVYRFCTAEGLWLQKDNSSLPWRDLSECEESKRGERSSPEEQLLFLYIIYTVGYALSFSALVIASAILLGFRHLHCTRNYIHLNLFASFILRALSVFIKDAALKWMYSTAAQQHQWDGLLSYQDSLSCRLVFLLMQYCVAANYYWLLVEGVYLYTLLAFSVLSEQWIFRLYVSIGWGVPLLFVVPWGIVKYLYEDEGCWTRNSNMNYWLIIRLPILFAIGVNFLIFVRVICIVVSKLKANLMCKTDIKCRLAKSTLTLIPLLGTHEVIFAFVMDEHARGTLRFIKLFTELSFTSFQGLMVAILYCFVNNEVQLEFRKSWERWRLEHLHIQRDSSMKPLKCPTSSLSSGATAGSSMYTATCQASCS
The test can be described thus: cAMP induction in HEK293 cells expressing human GLP-1 R (AlphaScreen cAMP kit). It counts as cell-based. The conditions noted are these: average EC50, cAMP, HEK293 cells expressing human GLP-1 R, read-out: GLP1 R (EC50 in nM). (In general: Bead proximity is the source of the signal in Alpha formats.)

The target of test [2] is T2, human GCG R (Homo sapiens, UniProt P47871).
T2 construct: expressed in transfected cells
T2 sequence (P47871 26-477): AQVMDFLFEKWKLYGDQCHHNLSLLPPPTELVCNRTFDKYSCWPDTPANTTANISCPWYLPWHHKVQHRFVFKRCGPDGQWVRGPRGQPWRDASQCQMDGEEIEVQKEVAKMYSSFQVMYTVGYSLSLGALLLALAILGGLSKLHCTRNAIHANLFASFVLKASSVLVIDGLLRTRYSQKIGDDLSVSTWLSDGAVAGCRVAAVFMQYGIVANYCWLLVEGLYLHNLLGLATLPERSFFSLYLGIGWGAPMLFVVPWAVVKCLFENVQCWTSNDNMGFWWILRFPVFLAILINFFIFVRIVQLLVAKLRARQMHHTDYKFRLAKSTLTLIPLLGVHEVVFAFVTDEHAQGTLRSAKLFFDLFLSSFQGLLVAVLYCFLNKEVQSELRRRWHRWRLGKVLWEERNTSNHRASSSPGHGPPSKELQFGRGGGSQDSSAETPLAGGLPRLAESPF
The test can be described thus: cAMP induction in HEK293 cells expressing human GCG R (AlphaScreen cAMP kit). It counts as cell-based.
Procedure: (§1) Briefly, HEK293 cells expressing the human GIP R, GLP-1 R or GCG R (stable cell lines generated through transfection of the cDNA for human GIP R, GLP-1 R or GCG R and selection of stable clones) were seeded at 30,000 cells/well in 96-well microtiter plates coated with 0.01% poly-L-lysine, and grown for 1 day in culture in 200 μl growth medium (DMEM, 10% FCS, Penicillin (100 IU/ml), Streptomycin (100 μg/ml)). On the day of analysis, growth medium was removed and the cells were washed once with 150 μl Tyrode's buffer (Tyrode's Salts (9.6 g/l), 10 mM HEPES, pH 7.4). […] The Assay buffer was removed and cells are lysed in 80 μl Lysis buffer (0.1% w/v BSA, 5 mM HEPES, 0.3% v/v Tween-20) per well. From each well 10 μl of lysed cells were transferred to a 384-well plate and mixed with 15 μl bead-mix (1 Unit/15 μl anti-cAMP Acceptor Beads, 1 Unit/15 μl Donor Beads, and 1 Unit/15 μl Biotinylated cAMP in Assay Buffer). The plates were mixed and incubated in the dark for an hour at room temperature before measuring using an Envision™ plate reader (Perkin-Elmer).
(§2) The resulting cAMP curves were plotted as absolute cAMP concentrations (nM) over log (test compound concentration) and analyzed using the curve fitting program XLfit.
(§3) Parameters calculated to describe both the potency as well as the agonistic activity of each test compound on the receptors were:
(§4) EC50, a concentration resulting in a half-maximal elevation of cAMP levels, reflecting the potency of the test compound.

Test [3] addresses T3, human GIP R (Homo sapiens, UniProt P48546).
T3 construct: expressed in transfected cells
T3 sequence (P48546 22-466): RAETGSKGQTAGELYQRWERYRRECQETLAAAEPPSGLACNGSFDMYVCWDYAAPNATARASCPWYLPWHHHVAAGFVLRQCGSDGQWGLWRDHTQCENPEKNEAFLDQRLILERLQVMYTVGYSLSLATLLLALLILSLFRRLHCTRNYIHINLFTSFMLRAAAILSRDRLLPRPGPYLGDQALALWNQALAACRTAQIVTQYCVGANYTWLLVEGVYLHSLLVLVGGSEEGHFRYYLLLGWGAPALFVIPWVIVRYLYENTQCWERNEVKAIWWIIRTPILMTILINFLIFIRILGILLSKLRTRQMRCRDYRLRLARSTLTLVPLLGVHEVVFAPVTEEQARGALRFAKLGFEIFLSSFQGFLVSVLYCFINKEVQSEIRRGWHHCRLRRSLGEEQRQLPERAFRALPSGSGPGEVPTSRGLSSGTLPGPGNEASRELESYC
The test is described as follows: cAMP induction in HEK293 cells expressing human GIP R (AlphaScreen cAMP kit). It counts as cell-based.
Procedure: as §1, §2, §3, §4

The target of test [4] is T4, human glucagon-like peptide 1 receptor (human, UniProt P43220 24-463). The test can be described thus: cell-based or functional assay.
Test [5] has as its target T5, human glucagon receptor (human, UniProt P47871 26-477). The test can be described thus: cell-based or functional assay.
The target in test [6] is T6, human GIP receptor (human, UniProt P48546 22-466).
T6 sequence: T3 sequence (P48546 22-466)
The test can be described thus: cell-based or functional assay.

For test [7], the target named is T4, human glucagon-like peptide 1 receptor. The test can be described thus: cell-based or functional assay. The source holds these as a separate data set.
Test [8] addresses T5, human glucagon receptor. The test is described as follows: cell-based or functional assay. This is another data set of the same source.
The target in test [9] is T6, human GIP receptor. The test is described as follows: cell-based or functional assay. This is another data set of the same source.
The mark [10] stands for this setting: Table 2b (most comprehensive data).
[11] abbreviates: GIP R (EC50 in nM), Table 2b (most comprehensive data), average EC50, cAMP.

T5 sequence (P47871 26-477): as the sequence (P47871 26-477) above

As a reminder, the EC50 is the midpoint of the concentration-response curve. In the case of `CC[C@H](C)[C@H](NC(=O)[C@H](CO)NC(=O)[C@H](Cc1ccc(O)cc1)NC(=O)[C@H](CC(=O)O)NC(=O)[C@H](CO)NC(=O)[C@@H](NC(=O)[C@H](Cc1ccccc1)NC(=O)[C@@H](NC(=O)CNC(=O)[C@H](CCC(N)=O)NC(=O)C(C)(C)NC(=O)[C@@H](N)Cc1ccc(O)cc1)[C@@H](C)O)[C@@H](C)O)C(=O)N[C@@H](Cc1ccc(O)cc1)C(=O)N[C@@H](CC(C)C)C(=O)N[C@@H](CC(=O)O)C(=O)N[C@@H](CCCCN)C(=O)N[C@@H](CCCCNC(=O)COCCOCCNC(=O)COCCOCCNC(=O)CC[C@H](NC(=O)CCCCCCCCCCCCCCCCC(=O)O)C(=O)O)C(=O)N[C@@H](C)C(=O)N[C@@H](CCC(N)=O)C(=O)N[C@@H](CCCNC(=N)N)C(=O)N[C@@H](C)C(=O)N[C@@H](Cc1ccccc1)C(=O)N[C@H](C(=O)N[C@@H](CCC(=O)O)C(=O)N[C@@H](Cc1c[nH]c2ccccc12)C(=O)N[C@@H](CC(C)C)C(=O)N[C@@H](CC(C)C)C(=O)N[C@@H](C)C(=O)N[C@@H](CCC(N)=O)C(=O)NCC(=O)N1CCC[C@H]1C(=O)N[C@@H](CO)C(=O)N[C@@H](CO)C(=O)NCC(=O)N[C@@H](C)C(=O)N1CCC[C@H]1C(=O)N1CCC[C@H]1C(=O)N1CCC[C@H]1C(=O)N[C@@H](CO)C(N)=O)C(C)C` [Compound 33] (H-Y[Aib]QGTFTSDYSIYLDKK([AEEA-AEEA-γGlu-C18 diacid])AQRAFVEWLLAQGPSSGAPPPS-NH2), the EC50 in test [1] (setting [10]) is 0.114 nM; in test [2] (Table 2b (most comprehensive data), average EC50, cAMP, HEK293 cells expressing human GCG R, read-out: GCG R (EC50 in nM)), 0.58 nM; in [3] (Table 2b (most comprehensive data), average EC50, cAMP, read-out: GIP R (EC50 in nM)), 0.009 nM.
In the case of `CCCCCCCCCCCCCCCCCC(=O)N[C@@H](CCC(=O)NCCOCCOCC(=O)NCCOCCOCC(=O)NCCCC[C@H](NC(=O)[C@H](CCCCN)NC(=O)[C@H](CCC(=O)O)NC(=O)[C@H](CC(C)C)NC(=O)[C@H](C)NC(=O)[C@@H](NC(=O)[C@H](CO)NC(=O)[C@H](Cc1ccc(O)cc1)NC(=O)[C@H](CC(=O)O)NC(=O)[C@H](CO)NC(=O)[C@@H](NC(=O)[C@H](Cc1ccccc1)NC(=O)[C@@H](NC(=O)CNC(=O)[C@H](CCC(N)=O)NC(=O)C(C)(C)NC(=O)[C@@H](N)Cc1ccc(O)cc1)[C@@H](C)O)[C@@H](C)O)[C@@H](C)CC)C(=O)N[C@@H](C)C(=O)N[C@@H](CCC(N)=O)C(=O)N[C@@H](CCCNC(=N)N)C(=O)N[C@@H](C)C(=O)N[C@@H](Cc1ccccc1)C(=O)N[C@H](C(=O)N[C@@H](CCC(=O)O)C(=O)N[C@@H](Cc1c[nH]c2ccccc12)C(=O)N[C@@H](CC(C)C)C(=O)N[C@@H](CC(C)C)C(=O)N[C@@H](C)C(=O)N[C@@H](CCC(N)=O)C(=O)N[C@@H](CCCCN)C(N)=O)C(C)C)C(=O)O` [Compound 46] (H-Y[Aib]QGTFTSDYSIALEKK([AEEA-AEEA-γGlu-Stearoyl])AQRAFVEWLLAQK-NH2), the EC50 in [1] (setting [10]) is 0.16 nM; in test [2], 0.13 nM; in test [3] (setting [11]) it was 0.011 nM.
As to `CC[C@H](C)[C@H](NC(=O)[C@H](CO)NC(=O)[C@H](Cc1ccc(O)cc1)NC(=O)[C@H](CC(=O)O)NC(=O)[C@H](CO)NC(=O)[C@@H](NC(=O)[C@H](Cc1ccccc1)NC(=O)[C@@H](NC(=O)CNC(=O)[C@H](CCC(N)=O)NC(=O)C(C)(C)NC(=O)[C@@H](N)Cc1ccc(O)cc1)[C@@H](C)O)[C@@H](C)O)C(=O)N[C@@H](Cc1ccc(O)cc1)C(=O)N[C@@H](CC(C)C)C(=O)N[C@@H](CC(=O)O)C(=O)N[C@@H](CO)C(=O)N[C@@H](CCCCN)C(=O)N[C@@H](C)C(=O)N[C@@H](C)C(=O)N[C@@H](CCCCN)C(=O)N[C@@H](CC(=O)O)C(=O)N[C@@H](Cc1ccccc1)C(=O)N[C@H](C(=O)N[C@@H](CCC(=O)O)C(=O)N[C@@H](Cc1c[nH]c2ccccc12)C(=O)N[C@@H](CC(C)C)C(=O)N[C@@H](CC(C)C)C(=O)N[C@@H](CO)C(=O)N[C@@H](C)C(N)=O)C(C)C` [Compound 10] (HELM PEPTIDE1{Y.[Aib].Q.G.T.F.T.S.D.Y.S.I.Y.L.D.S.K.A.A.K.D.F.V.E.W.L.L.S.A.[am]}$$$$V2.0), the EC50 in test [1] (Table 2) was determined as 0.012 nM; in test [1] (setting [10]), 0.1 nM; in test [2], 0.1 nM; in test [3] (GIP R (EC50 in nM), Table 2, average EC50, cAMP), 0.24 nM; in [3] (setting [11]), 0.012 nM.
With H-Y[Aib]QGTFTSDYSKYLDSK([γGlu-Palmitoyl])AAHDFVEWLLSA-NH2 [Compound 2], the “EC50 (cAMP induction)” value in [4] was determined as 0.089 nM; in [5], 0.046 nM; in test [6] it was 0.35 nM; in test [7], 0.046 nM; in test [8], 0.046 nM; in [9], 0.089 nM.
H-YSQGTFTSDYSKYLDSKAAHDFVEWLLRA-NH2 [Compound 1]: the “EC50 (cAMP induction)” value worked out at 0.033 nM in test [4]; 0.013 nM in test [5]; 0.38 nM in test [6]; 0.013 nM in test [7]; 0.013 nM in [8]; 0.033 nM in test [9].

B1: Compound 3 (peptide)
peptide: YAQGTFTSDYSKYLDSKAAHDFVEWLLRA
HELM: PEPTIDE1{Y.[Aib].Q.G.T.F.T.S.D.Y.S.K.Y.L.D.S.K.A.A.H.D.F.V.E.W.L.L.R.A.[am]}$$$$V2.0
SMILES: CC(C)C[C@H](NC(=O)[C@H](CC(C)C)NC(=O)[C@H](Cc1c[nH]c2ccccc12)NC(=O)[C@H](CCC(=O)O)NC(=O)[C@@H](NC(=O)[C@H](Cc1ccccc1)NC(=O)[C@H](CC(=O)O)NC(=O)[C@H](Cc1c[nH]cn1)NC(=O)[C@H](C)NC(=O)[C@H](C)NC(=O)[C@H](CCCCN)NC(=O)[C@H](CO)NC(=O)[C@H](CC(=O)O)NC(=O)[C@H](CC(C)C)NC(=O)[C@H](Cc1ccc(O)cc1)NC(=O)[C@H](CCCCN)NC(=O)[C@H](CO)NC(=O)[C@H](Cc1ccc(O)cc1)NC(=O)[C@H](CC(=O)O)NC(=O)[C@H](CO)NC(=O)[C@@H](NC(=O)[C@H](Cc1ccccc1)NC(=O)[C@@H](NC(=O)CNC(=O)[C@H](CCC(N)=O)NC(=O)C(C)(C)NC(=O)[C@@H](N)Cc1ccc(O)cc1)[C@@H](C)O)[C@@H](C)O)C(C)C)C(=O)N[C@@H](CCCNC(=N)N)C(=O)N[C@@H](C)C(N)=O
B1: the “EC50 (cAMP induction)” value in test [4] stood at 0.015 nM; in test [5] it was 0.022 nM; in test [6] it was 0.13 nM; in test [7] it was 0.022 nM; in [8], 0.022 nM; in [9] it was 0.015 nM.

B2: Compound 5 (peptide)
peptide: YAQGTFTSDYSIYLDSKAAHDFVEWLLSA
HELM: PEPTIDE1{Y.[Aib].Q.G.T.F.T.S.D.Y.S.I.Y.L.D.S.K.A.A.H.D.F.V.E.W.L.L.S.A.[am]}$$$$V2.0
SMILES: CC[C@H](C)[C@H](NC(=O)[C@H](CO)NC(=O)[C@H](Cc1ccc(O)cc1)NC(=O)[C@H](CC(=O)O)NC(=O)[C@H](CO)NC(=O)[C@@H](NC(=O)[C@H](Cc1ccccc1)NC(=O)[C@@H](NC(=O)CNC(=O)[C@H](CCC(N)=O)NC(=O)C(C)(C)NC(=O)[C@@H](N)Cc1ccc(O)cc1)[C@@H](C)O)[C@@H](C)O)C(=O)N[C@@H](Cc1ccc(O)cc1)C(=O)N[C@@H](CC(C)C)C(=O)N[C@@H](CC(=O)O)C(=O)N[C@@H](CO)C(=O)N[C@@H](CCCCN)C(=O)N[C@@H](C)C(=O)N[C@@H](C)C(=O)N[C@@H](Cc1c[nH]cn1)C(=O)N[C@@H](CC(=O)O)C(=O)N[C@@H](Cc1ccccc1)C(=O)N[C@H](C(=O)N[C@@H](CCC(=O)O)C(=O)N[C@@H](Cc1c[nH]c2ccccc12)C(=O)N[C@@H](CC(C)C)C(=O)N[C@@H](CC(C)C)C(=O)N[C@@H](CO)C(=O)N[C@@H](C)C(N)=O)C(C)C
Turning to B2, the “EC50 (cAMP induction)” value stood at 0.0092 nM in test [4]; 0.065 nM in test [5]; 0.17 nM in [6]; 0.065 nM in test [7]; 0.065 nM in test [8]; 0.009 nM in [9].
Regarding H-Y[Aib]QGTFTSDYSIALEKK([Peg3-Peg3-γGlu-Stearoyl])AQRAFVEWLLAQK-NH2 [Compound 46], the “EC50 (cAMP induction)” value in [7] is 0.16 nM; in test [8] it was 0.13 nM; in test [9], 0.011 nM.
